Common to all, as to conditions: scale: mg Gammanorm/ml chromatography matrix(gel)
The target of experiment [1] is GAMMANORM 165 mg/ml (Octapharma no. 00 86 64), human normal immunoglobulin (human). Put plainly: column dynamic binding capacity at 10% breakthrough, before NaOH incubation.
Experiment [2] shares this target. The experiment is described as follows: column dynamic binding capacity at 10% breakthrough, after 1 h accumulated in 0.5 M NaOH.
For experiment [3] the target is unchanged. Put plainly: column dynamic binding capacity at 10% breakthrough, after 3 h accumulated in 0.5 M NaOH.
The target is the same in experiment [4]. Put plainly: column dynamic binding capacity at 10% breakthrough, after 5 h accumulated in 0.5 M NaOH.
For experiment [5] the target is unchanged. The experiment is described as follows: column dynamic binding capacity at 10% breakthrough, after 10 h accumulated in 0.5 M NaOH.
For experiment [6] the target is unchanged. Put plainly: column dynamic binding capacity at 10% breakthrough, after 15 h accumulated in 0.5 M NaOH.
Experiment [7] shares this target. The experiment is described as follows: column dynamic binding capacity at 10% breakthrough, after 20 h accumulated in 0.5 M NaOH.

Results on two sequences are retold here after patent US20190308168A1.

In experiment [1], “MABSELECT SURE ligand (four domains originating from the domain B analogue Z, stabilized against high pH by protein engineering), coupled to agarose particles (designed binder)” returned a Capacity (Start Capacity 1) of 28.4 and a Capacity (Start Capacity 2) of 28.1. In experiment [2], this sequence showed a Capacity after 1 h of 29.3. In addition, in experiment [3], the Capacity after 3 h turned out to be 28.4. Also, the Capacity after 5 h in experiment [4] is 28.2. This sequence also had a Capacity after 10 h in experiment [5] of 27.9. The same sequence had a Capacity after 15 h in experiment [6] of 27. The sequence also gave a Capacity after 20 h in experiment [7] of 25.9.

In experiment [1], “MABSELECT ligand (recombinant Protein A consisting of five homologous domains E, D, A, B, C), coupled to agarose particles (from UniProt P38507 37-327)” came in with a Capacity (Start Capacity 1) of 29 and a Capacity (Start Capacity 2) of 29. The sequence further registered a Capacity after 1 h in experiment [2] of 27. Further, the Capacity after 3 h in experiment [3] is 23.1. In experiment [4], the Capacity after 5 h is 20.3. Besides, the Capacity after 10 h in experiment [5] is 15.8. In experiment [6], this sequence had a Capacity after 15 h of 12.5. For the same sequence, in experiment [7], the Capacity after 20 h amounted to 10.1.
